Reference: the emibetuzumab library of Makowski et al. (2022)

B1: VH:VL chains; a variant is named by its letters at X, in order (parent)
chain 1: QVQLVQSGAEVKKPGASVKVSCKASGYTFTDYXMHWVRQAPGQGLEWMGXVNPNXXXTTYNQKFEGRVTMTTDTSTSTAYMELRSLRSDDTAVYYCARXNXLDXWGQGTTVTVSS
chain 2: DIQMTQSPSSLSASVGDRVTITCSVSSSVSSIYLHWYQQKPGKAPKLLIYSTSNLASGVPSRFSGSGSGTDFTLTISSLQPEDFATYYCQVYSGYPLTFGGGTKVEIK

Variants of: B1
Assay: yeast display scFab, FACS + sequencing
How it was run: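 For the non-specific binding call, a heavy-chain CDR mutant scFab library on the yeast surface was FACS-sorted and samples from two replicates were deep sequenced. Cells were labelled with anti-Myc and either biotinylated ovalbumin (260 μg/mL in PBSB, 3 h, room temperature) or soluble membrane proteins (130 μg/mL, 20 min on ice), with gates on the top 25% and bottom 10% of binders. With membrane protein and ovalbumin samples pooled, a sequence in ≥3 of 4 positive samples and no negatives was scored positive, and the converse rule scored negatives.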

| Variant | non-specific binding call |
| --- | --- |
| YKGADFGD | binds |
| VKEKGSLF | binds |
| YKERASGV | binds |
| SKERGDVV | no binding |
| SKERGDVD | no binding |
| SKERGDVA | no binding |
| SKGEGDWA | no binding |
| YKGAAFWA | binds |
| AKERGDGV | no binding |
| YKGKDSSV | no binding |
| YKGGSAWY | binds |
| SKGASAWA | binds |
| SKGASFAY | binds |
| DKGGSAVV | no binding |
| VKEKGDVA | no binding |
| VKGASDGA | no binding |
| FKGEGSLV | no binding |
| FKGEGSLY | no binding |
| VKERGDGV | no binding |
| VKGESAGV | no binding |
| SKERGDWV | no binding |
| SKERGDWY | no binding |
| SKERGDLV | no binding |
| YKGGSSLD | binds |

| Variant | non-specific binding call |
| --- | --- |
| FKGEGDAA | no binding |
| YKGGSDVY | binds |
| DKGEGDLA | no binding |
| VKGASDWA | no binding |
| VKEKGDLA | no binding |
| FKGGGFGA | binds |
| YKGAGAWA | binds |
| DKGEGAAA | no binding |
| SKGENALY | no binding |
| AKGKASSD | binds |
| DKGGSSLD | no binding |
| VKEKGYLV | no binding |
| YKGEGDLV | no binding |
| YKGEGDLA | no binding |
| YKGGSSGV | binds |
| YKGAGALD | binds |
| VKEKGDWV | no binding |
| VKERGAVA | no binding |
| YKGAASGV | binds |
| VKGEGYGA | binds |
| DKGGSDVA | no binding |
| DKGGSDVV | no binding |
| YKGGSFGV | binds |
| YKGGGYGA | binds |

| Variant | non-specific binding call |
| --- | --- |
| YKGGGSAV | binds |
| DKGGGFAV | no binding |
| YKERGDVV | no binding |
| YKERGDVF | binds |
| FKGEGDSA | no binding |
| YKGGDDLA | no binding |
| YKGEADGA | no binding |
| VKGGNVGV | binds |
| YKETGYAV | binds |
| SKERGDAA | no binding |
| FKGEGDVA | no binding |
| FKGEGDVY | no binding |
| VKGAGSVV | no binding |
| VKGGGFGA | binds |
| FKGEGSSA | no binding |
| VKGASDVV | no binding |
| VKGASDVA | no binding |
| FKGGGAVY | binds |
| YKGGSAGA | binds |
| YKGGSAGY | binds |
| FKGEGFGS | binds |
| DKGGGDVA | no binding |
| FKGEGYGV | binds |
| VKGGGYGA | binds |

| Variant | non-specific binding call |
| --- | --- |
| VKERGSVD | binds |
| VKGGSFGS | binds |
| DKGGAVWT | no binding |
| YKGGSAAA | binds |
| FKGEDAVA | no binding |
| YKGGSSAA | binds |
| YKGGSSAD | binds |
| YKGAAFAD | binds |
| FKGEGAGV | no binding |
| VKGAGAAS | binds |
| VKGEGDVY | no binding |
| DKGEGDGA | no binding |
| AKGGGDVV | no binding |
| VKEKGDSA | no binding |
| YKGEGDGV | no binding |
| FKGGNVGV | binds |
| VKGEAAWD | binds |
| YKGEGYGV | binds |
| YKGEGFSS | binds |
| YKGEGDVV | no binding |
| DKGGAAGD | no binding |
| AKGGAAVY | no binding |
| VKERGDAV | no binding |
| VKEKGDGS | no binding |

| Variant | non-specific binding call |
| --- | --- |
| FKGEGAAD | no binding |
| YKGAGDVV | no binding |
| VKGAGDLA | no binding |
| AKGEDSVF | no binding |
| YKGAGSAD | binds |
| FKGEGDGV | no binding |
| VKETSVLF | binds |
| SKERGSLV | no binding |
| SKERGDGA | no binding |
| YKGEDDVY | no binding |
| YKGGGALD | binds |
| DKGEGAGV | no binding |
| FKGGSSAA | binds |
| YKGGGAGS | binds |
| YKGGGAGA | binds |
| SKGGSAWD | binds |
| DKERGDLV | no binding |
| YKERDVGV | binds |
| VKGGAAVY | no binding |
| VKGKDSGD | binds |
